Data reported in patent US20250032605A1.
pKd: −log10 of the molar value.

Legend:
[1] = biological target: SARS-2 RBD (wild-type SARS-CoV-2 receptor binding domain, monomer) (SARS-CoV-2) (UniProt P0DTC2); assay: BLI, Fab on FAB2G sensor, RBD as analyte, apparent KD
[2] = biological target: SARS-1 RBD (SARS-CoV receptor binding domain, monomer) (SARS-CoV (SARS-1)) (UniProt P59594); assay: BLI, Fab on FAB2G sensor, RBD as analyte, apparent KD
[3] = biological target: WIV1 RBD (WIV1-CoV receptor binding domain, monomer) (WIV1-CoV); assay: as above

Row | Substance | pKd [1] | pKd (SARS-2^hg (row Trimer)) | pKd [2] | pKd [3]
1 | B38 Fab | 6.01 | 5.49 | – | –
2 | CR3022 Fab | – | – | 7.57 | 7.43
